Substitutions are numbered along the chain they refer to. Where “and” joins values, the source holds several entries; their conditions need not be identical. Equal entries are not always repeated.

These results are taken from PMC4837482, “The complex binding mode of the peptide hormone H2 relaxin to its receptor RXFP1” (Nature Communications, 2016).

One experiment addresses T1, RXFP1(1–72) (Homo sapiens, UniProt Q9HBX9).
T1 construct: GB1 (N, cleaved yes); made in house; host or cells: E. coli BL21 (DE3) trxB
T1 sequence (Q9HBX9 23-94 limits assumed): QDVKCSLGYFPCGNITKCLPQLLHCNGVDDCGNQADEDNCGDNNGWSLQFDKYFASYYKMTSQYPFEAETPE
The experiment in a line: 2D 1H-15N HSQC monitored H2 relaxin titration of 15N-labelled RXFP1(1–72). Particulars: 50 μM 15N-labelled RXFP1(1–72); single-site binding curve fit of Asp51, Ala55, Thr61 chemical shifts; pH 6.8, 25 °C; read-out: affinity (Kd) of H2 relaxin for RXFP1(1–72). The method, then:
All RXFP1(1–72) protein samples for nuclear magnetic resonance (NMR) experiments were prepared from lyophilized protein in 50 mM imidazole, with 10 mM CaCl2 at pH 6.8. Recombinant human gene-2 H2 relaxin peptide was kindly provided by Corthera. EL1^(475–486)/EL2-GB1 samples were prepared as described above. Titrant and titrand were dialyzed in the same buffer in the same vessel. All NMR experiments were routinely collected at 25 °C on a 700-MHz Bruker Avance HDIII spectrometer equipped with triple resonance cryoprobe. […] Backbone assignments were made from 3D HNCACB, HNCOCACB, HNCO and HNCACO experiments. Spectra were processed using NMRPipe (ref. [43]) and typically Fourier-transformed after applying Lorentz-to-Gauss window functions in the direct dimension and cosine bells in the indirect dimensions. NMR data were analysed using SPARKY (Goddard, T.D. and Kneller, D.G., University of California, San Francisco). Assignments of the mutant RXFP1(1–72) proteins were determined from the assignments of wild-type RXFP1(1–72).
The binding of H2 relaxin to RXFP1(1–72) was monitored by acquiring 2D ^1H-^15N Heteronuclear Single Quantum Coherence (HSQC; 2,048 × 256 data points) for each titration point of increasing H2 relaxin: 25, 50, 100, 200, 400 and 500 μM against 50 μM RXFP1(1–72). […]

Another experiment addresses LRR domain of RXFP1. The experiment is described as follows: Affinity for the LRR domain predicted from the titration data. Particulars: predicted from the RXFP1(1–72) titration data. Details: species or system human.
Another experiment deals with T2, RXFP1 F54A (Homo sapiens, UniProt Q9HBX9, F76A).
T2 construct: cells expressing full-length RXFP1 and mutants; expressed in transfected cells; host or cells: HEK293T
T2 sequence (Q9HBX9 23-757 F76A limits assumed): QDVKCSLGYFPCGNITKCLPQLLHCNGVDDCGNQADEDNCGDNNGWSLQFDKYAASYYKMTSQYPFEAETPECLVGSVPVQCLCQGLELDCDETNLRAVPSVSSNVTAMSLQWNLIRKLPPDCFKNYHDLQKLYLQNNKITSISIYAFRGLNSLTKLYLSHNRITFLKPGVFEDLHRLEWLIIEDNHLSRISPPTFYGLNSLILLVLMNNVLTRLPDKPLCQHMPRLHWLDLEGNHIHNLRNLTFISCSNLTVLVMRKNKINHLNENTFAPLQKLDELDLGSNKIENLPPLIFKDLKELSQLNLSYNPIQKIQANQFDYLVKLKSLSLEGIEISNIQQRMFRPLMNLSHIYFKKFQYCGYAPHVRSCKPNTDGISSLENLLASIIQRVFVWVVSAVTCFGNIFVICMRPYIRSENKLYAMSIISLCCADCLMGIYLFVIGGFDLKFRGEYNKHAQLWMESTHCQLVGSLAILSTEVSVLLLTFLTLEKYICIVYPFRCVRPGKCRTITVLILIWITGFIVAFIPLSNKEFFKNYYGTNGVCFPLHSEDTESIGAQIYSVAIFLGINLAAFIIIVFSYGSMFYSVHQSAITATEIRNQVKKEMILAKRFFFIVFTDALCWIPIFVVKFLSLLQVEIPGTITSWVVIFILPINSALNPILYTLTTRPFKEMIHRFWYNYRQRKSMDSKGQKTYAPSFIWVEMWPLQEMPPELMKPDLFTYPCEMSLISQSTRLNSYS
The experiment is described as follows: Eu-H2 relaxin saturation binding assay, transfected HEK293T cells. Particulars: F54A-RXFP1 versus wild-type RXFP1.

For another experiment, the target named is T3, RXFP1 F54A/Y58A (Homo sapiens, UniProt Q9HBX9, F76A/Y80A).
T3 construct: cells expressing full-length RXFP1 and mutants; expressed in transfected cells; host or cells: HEK293T
T3 sequence (Q9HBX9 23-757 F76A/Y80A limits assumed): T2 sequence (Q9HBX9 23-757 F76A limits assumed) with Y58A
The description is as above. As to conditions: F54A/Y58A RXFP1 versus wild-type RXFP1.

One may read the Kd as a measure of binding affinity in units of concentration. For the substance “H2 relaxin: two-chain 6-kDa peptide hormone structurally related to insulin; recombinant human gene-2 H2 relaxin provided by Corthera”, the Kd in the experiment with RXFP1(1–72) is 200 µM and ~200 µM; at LRR domain of RXFP1, around 1 µM. The “loss in H2 relaxin binding” value is listed as “fourfold” in the experiment with RXFP1 F54A and “tenfold” with RXFP1 F54A/Y58A.
